Data on 2 molecules can be found in patent publication EP1410040B1.

In assay [1] the target is full length STAT6 (human) (UniProt P42226). Description: cell-based or functional assay.
The target in assay [2] is GST-STAT6 aa 677-847 protein (human). Description: ELISA: 500 ng GST-STAT6 (677-847) coated, 250 ng His-NCoA-1 added, detected by Penta-His and anti-mouse-HRP; average of three experiments, s.d. 0,036. For orientation: ELISA stands for enzyme-linked immunosorbent assay.
Sequence of GST-STAT6 aa 677-847 protein (human) (chain, as listed by the source limits assumed): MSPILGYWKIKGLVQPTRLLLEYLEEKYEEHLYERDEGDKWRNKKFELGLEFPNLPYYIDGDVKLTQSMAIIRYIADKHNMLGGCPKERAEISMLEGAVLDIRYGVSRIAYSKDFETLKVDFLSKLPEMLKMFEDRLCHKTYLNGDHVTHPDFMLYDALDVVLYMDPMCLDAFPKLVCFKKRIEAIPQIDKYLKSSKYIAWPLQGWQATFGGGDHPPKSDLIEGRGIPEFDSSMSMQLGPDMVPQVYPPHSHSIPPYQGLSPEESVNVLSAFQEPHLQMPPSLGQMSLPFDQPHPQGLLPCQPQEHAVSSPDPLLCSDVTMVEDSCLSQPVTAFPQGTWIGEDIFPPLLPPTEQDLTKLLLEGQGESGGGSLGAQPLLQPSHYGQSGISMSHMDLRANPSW

Sequence of UniProt P42226 (P42226 2-847): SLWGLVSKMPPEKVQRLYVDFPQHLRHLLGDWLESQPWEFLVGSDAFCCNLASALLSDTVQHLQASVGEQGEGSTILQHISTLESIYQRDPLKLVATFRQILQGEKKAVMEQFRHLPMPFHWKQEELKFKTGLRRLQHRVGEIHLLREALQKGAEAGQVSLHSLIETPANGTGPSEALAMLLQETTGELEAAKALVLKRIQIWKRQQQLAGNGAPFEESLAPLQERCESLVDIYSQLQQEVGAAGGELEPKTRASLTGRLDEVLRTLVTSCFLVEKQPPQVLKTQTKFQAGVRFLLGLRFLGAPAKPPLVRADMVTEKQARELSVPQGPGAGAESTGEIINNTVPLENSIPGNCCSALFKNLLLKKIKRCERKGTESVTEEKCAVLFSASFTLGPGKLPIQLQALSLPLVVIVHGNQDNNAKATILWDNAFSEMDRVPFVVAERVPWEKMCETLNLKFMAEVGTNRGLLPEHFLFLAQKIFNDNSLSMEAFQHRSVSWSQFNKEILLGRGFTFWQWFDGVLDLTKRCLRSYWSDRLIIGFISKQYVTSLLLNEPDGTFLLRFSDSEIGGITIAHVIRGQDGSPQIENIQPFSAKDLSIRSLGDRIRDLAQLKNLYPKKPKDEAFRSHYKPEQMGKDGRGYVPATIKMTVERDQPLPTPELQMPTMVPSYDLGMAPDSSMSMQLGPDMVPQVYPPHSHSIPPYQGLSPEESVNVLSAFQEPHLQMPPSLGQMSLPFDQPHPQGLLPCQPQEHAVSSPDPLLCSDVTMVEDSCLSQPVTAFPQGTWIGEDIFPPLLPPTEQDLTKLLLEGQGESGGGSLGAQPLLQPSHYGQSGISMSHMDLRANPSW

Turning to “NCoA-1 (nuclear coactivator 1), full length (from UniProt P70365 2-1447)”, in assay [1], the IL-4 induced luciferase reporter gene expression (multimerized STAT6 response elements) in HepG2 cells was less than 3 fold.

B1: His-tagged NCoA-1 aa 212-463 (protein)
chain: MHHHHHHSSGLVPRGSGMKETAAAKFERQHMDSPDLGTDDDDKAMGYLWIQEACQRYEVMQCFTVSQPKSIQEDGEDFQSCLICIARRLPRPPAITGVESFMTKQDTTGKIISIDTSSLRAAGRTGWEDLVRKCIYAFFQPQGREPSYARQLFQEVMTRGTASSPSYRFILNDGTMLSAHTKCKLCYPQSPDMQPFIMGIHIIDREHSGLSPQDDSNSGMSIPRINPSVNPGISPAHGVTRSSTLPPSNNNMVSARVNRQQSSDLNSSSSHTNSSNNQGNFGCSPGNQIVANVALNQGQAGSLEHHHHHH
As to B1, in assay [2], the Extinction 493 nm was found to be 0.795.
